Tests used:
human CCR8 [1] = biological target: T1, human CCR8 (human, UniProt P51685 1-355); experiment: cell-based or functional assay
human CCR8 [2] = biological target: T1, human CCR8; experiment: cell-based or functional assay; remark: listed apart in the source

T1 sequence (P51685 whole entry): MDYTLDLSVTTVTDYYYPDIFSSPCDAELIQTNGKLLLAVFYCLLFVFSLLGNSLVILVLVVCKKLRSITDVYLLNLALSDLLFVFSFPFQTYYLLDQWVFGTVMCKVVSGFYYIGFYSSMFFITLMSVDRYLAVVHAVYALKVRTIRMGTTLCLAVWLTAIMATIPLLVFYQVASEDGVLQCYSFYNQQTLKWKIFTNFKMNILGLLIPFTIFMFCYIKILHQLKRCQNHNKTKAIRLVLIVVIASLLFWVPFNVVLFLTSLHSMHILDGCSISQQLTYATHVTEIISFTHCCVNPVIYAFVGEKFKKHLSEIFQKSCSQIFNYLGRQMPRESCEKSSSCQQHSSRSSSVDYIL

B1: B6-CD3-3 (bispecific antibody)
chain: EVQLVESDGGLVQPGRSLKLSCAASGFTFSDYYMAWVRQAPTKGLEWVATITYDVYSTYYRDSVKGRFTISRDNAKSTLYLQMDSLRSEDTATYYCARHGGDGYNSGNWFAYWGQGTLVTVSSGGGGSGGGGSGGGGSDIVLTQSPALAVSLGQRATISCRASQSVSISRYNIMHWYQQKPGQQPKLLIYRASNLASGIPARFSGSGSGTDFTLTINPVQADDIATYYCQQSRESPPTFGGGTKLELKRAANASEVQLVESGGGLVQPGGSLRLSCAASGFTFSTYAMNWVRQAPGKGLEWVGRIRSKYNNYATYYADSVKGRFTISRDDSKNTLYLQMNSLRAEDTAVYYCVRHGNFGDSYVSWFAYWGQGTLVTVSSGKPGSGKPGSGKPGSGKPGSQAVVTQEPSLTVSPGGTVTLTCGSSTGAVTTSNYANWVQQKPGKSPRGLIGGTNKRAPGVPARFSGSLLGGKAALTISGAQPEDEADYYCALWYSNHWVFGGGTKLTVLHHHHHH
- EC50 of killing rate; hCCR8/FLuc/Rat-1 target cells, activated PBMC effectors, E/T 3:1 (human CCR8 [1]): 1.62 pM

B2: B6-mCD3 (bispecific antibody)
chain: EVQLVESDGGLVQPGRSLKLSCAASGFTFSDYYMAWVRQAPTKGLEWVATITYDVYSTYYRDSVKGRFTISRDNAKSTLYLQMDSLRSEDTATYYCARHGGDGYNSGNWFAYWGQGTLVTVSSGGGGSGGGGSGGGGSDIVLTQSPALAVSLGQRATISCRASQSVSISRYNIMHWYQQKPGQQPKLLIYRASNLASGIPARFSGSGSGTDFTLTINPVQADDIATYYCQQSRESPPTFGGGTKLELKRAANASEVQLVESGGGLVQPGKSLKLSCEASGFTFSGYGMHWVRQAPGRGLESVAYITSSSINIKYADAVKGRFTVSRDNAKNLLFLQMNILKSEDTAMYYCARFDWDKNYWGQGTMVTVSSGGGGSGGGGSGGGGSDIQMTQSPSSLPASLGDRVTINCQASQDISNYLNWYQQKPGKAPKLLIYYTNKLADGVPSRFSGSGSGRDSSFTISSLESEDIGSYYCQQYYNYPWTFGPGTKLEIKHHHHHH
- EC50 of cytotoxic activity, luciferase; hCCR8/Fluc/Rat-1 target cells, mouse spleen-derived CD8-positive T cell effectors, antibody 10 pM-10 nM (human CCR8 [2]): 62.3 pM
